Patent US20060251655A1

B1: Q449stop (C-terminal deletion variant of ADAMTS-13, FLAG appended) (protein)
chain: PSHFQQSCLQALEPQAVSSYLSPGAPLKGRPPSPGFQRQRQRQRRAAGGILHLELLVAVGPDVFQAHQEDTERYVLTNLNIGAELLRDPSLGAQFRVHLVKMVILTEPEGAPNITANLTSSLLSVCGWSQTINPEDDTDPGHADLVLYITRFDLELPDGNRQVRGVTQLGGACSPTWSCLITEDTGFDLGVTIAHEIGHSFGLEHDGAPGSGCGPSGHVMASDGAAPRAGLAWSPCSRRQLLSLLSAGRARCVWDPPRPQPGSAGHPPDAQPGLYYSANEQCRVAFGPKAVACTFAREHLDMCQALSCHTDPLDQSSCSRLLVPLLDGTECGVEKWCSKGRCRSLVELTPIAAVHGRWSSWGPRSPCSRSCGGGVVTRRRQCNNPRPAFGGRACVGADLQAEMCNTQACEKTQLEFMSQQDYKDDDDK
B2: W688stop (C-terminal deletion variant of ADAMTS-13, FLAG appended) (protein)
chain: PSHFQQSCLQALEPQAVSSYLSPGAPLKGRPPSPGFQRQRQRQRRAAGGILHLELLVAVGPDVFQAHQEDTERYVLTNLNIGAELLRDPSLGAQFRVHLVKMVILTEPEGAPNITANLTSSLLSVCGWSQTINPEDDTDPGHADLVLYITRFDLELPDGNRQVRGVTQLGGACSPTWSCLITEDTGFDLGVTIAHEIGHSFGLEHDGAPGSGCGPSGHVMASDGAAPRAGLAWSPCSRRQLLSLLSAGRARCVWDPPRPQPGSAGHPPDAQPGLYYSANEQCRVAFGPKAVACTFAREHLDMCQALSCHTDPLDQSSCSRLLVPLLDGTECGVEKWCSKGRCRSLVELTPIAAVHGRWSSWGPRSPCSRSCGGGVVTRRRQCNNPRPAFGGRACVGADLQAEMCNTQACEKTQLEFMSQQCARTDGQPLRSSPGGASFYHWGAAVPHSQGDALCRHMCRAIGESFIMKRGDSFLDGTRCMPSGPREDGTLSLCVSGSCRTFGCDGRMDSQQVWDRCQVCGGDNSTCSPRKGSFTAGRAREYVTFLTVTPNLTSVYIANHRPLFTHLAVRIGGRYVVAGKMSISPNTTYPSLLEDGRVEYRVALTEDRLPRLEEIRIWGPLQEDADIQVYRRYGEEYGNLTRPDITFTYFQPKPRQAWVWDYKDDDDK
B3: W1016stop (C-terminal deletion variant of ADAMTS-13, FLAG appended) (protein)
chain: PSHFQQSCLQALEPQAVSSYLSPGAPLKGRPPSPGFQRQRQRQRRAAGGILHLELLVAVGPDVFQAHQEDTERYVLTNLNIGAELLRDPSLGAQFRVHLVKMVILTEPEGAPNITANLTSSLLSVCGWSQTINPEDDTDPGHADLVLYITRFDLELPDGNRQVRGVTQLGGACSPTWSCLITEDTGFDLGVTIAHEIGHSFGLEHDGAPGSGCGPSGHVMASDGAAPRAGLAWSPCSRRQLLSLLSAGRARCVWDPPRPQPGSAGHPPDAQPGLYYSANEQCRVAFGPKAVACTFAREHLDMCQALSCHTDPLDQSSCSRLLVPLLDGTECGVEKWCSKGRCRSLVELTPIAAVHGRWSSWGPRSPCSRSCGGGVVTRRRQCNNPRPAFGGRACVGADLQAEMCNTQACEKTQLEFMSQQCARTDGQPLRSSPGGASFYHWGAAVPHSQGDALCRHMCRAIGESFIMKRGDSFLDGTRCMPSGPREDGTLSLCVSGSCRTFGCDGRMDSQQVWDRCQVCGGDNSTCSPRKGSFTAGRAREYVTFLTVTPNLTSVYIANHRPLFTHLAVRIGGRYVVAGKMSISPNTTYPSLLEDGRVEYRVALTEDRLPRLEEIRIWGPLQEDADIQVYRRYGEEYGNLTRPDITFTYFQPKPRQAWVWAAVRGPCSVSCGAGLRWVNYSCLDQARKELVETVQCQGSQQPPAWPEACVLEPCPPYWAVGDFGPCSASCGGGLRERPVRCVEAQGSLLKTLPPARCRAGAQQPAVALETCNPQPCPARWEVSEPSSCTSAGGAGLALENETCVPGADGLEAPVTEGPGSVDEKLPAPEPCVGMSCPPGWGHLDATSAGEKAPSPWGSIRTGAQAAHVWTPAAGSCSVSCGRGLMELRFLCMDSALRVPVQEELCGLASKPGSRREVCQAVPCPARWQYKLAACSVSCGRGVVRRILYCARAHGEDDGEEILLDTQCQGLPRPEPQEACSLEPCPPRWDYKDDDDK
B4: recombinant ADAMTS-13 (von Willebrand factor specific cleaving enzyme), expressed in human embryo kidney cell line 293 (protein)
chain: AAGGILHLELLVAVGPDVFQAHQEDTERYVLTNLNIGAELLRDPSLGAQFRVHLVKMVILTEPEGAPNITANLTSSLLSVCGWSQTINPEDDTDPGHADLVLYITRFDLELPDGNRQVRGVTQLGGACSPTWSCLITEDTGFDLGVTIAHEIGHSFGLEHDGAPGSGCGPSGHVMASDGAAPRAGLAWSPCSRRQLLSLLSAGRARCVWDPPRPQPGSAGHPPDAQPGLYYSANEQCRVAFGPKAVACTFAREHLDMCQALSCHTDPLDQSSCSRLLVPLLDGTECGVEKWCSKGRCRSLVELTPIAAVHGRWSSWGPRSPCSRSCGGGVVTRRRQCNNPRPAFGGRACVGADLQAEMCNTQACEKTQLEFMSQQCARTDGQPLRSSPGGASFYHWGAAVPHSQGDALCRHMCRAIGESFIMKRGDSFLDGTRCMPSGPREDGTLSLCVSGSCRTFGCDGRMDSQQVWDRCQVCGGDNSTCSPRKGSFTAGRAREYVTFLTVTPNLTSVYIANHRPLFTHLAVRIGGRYVVAGKMSISPNTTYPSLLEDGRVEYRVALTEDRLPRLEEIRIWGPLQEDADIQVYRRYGEEYGNLTRPDITFTYFQPKPRQAWVWAAVRGPCSVSCGAGLRWVNYSCLDQARKELVETVQCQGSQQPPAWPEACVLEPCPPYWAVGDFGPCSASCGGGLRERPVRCVEAQGSLLKTLPPARCRAGAQQPAVALETCNPQPCPARWEVSEPSSCTSAGGAGLALENETCVPGADGLEAPVTEGPGSVDEKLPAPEPCVGMSCPPGWGHLDATSAGEKAPSPWGSIRTGAQAAHVWTPAAGSCSVSCGRGLMELRFLCMDSALRVPVQEELCGLASKPGSRREVCQAVPCPARWQYKLAACSVSCGRGVVRRILYCARAHGEDDGEEILLDTQCQGLPRPEPQEACSLEPCPPRWKVMSLGPCSASCGLGTARRSVACVQLDQGQDVEVDEAACAALVRPEASVPCLIADCTYRWHVGTWMECSVSCGDGIQRRRDTCLGPQAQAPVPADFCQHLPKPVTVRGCWAGPCVGQGTPSLVPHEEAAAPGRTTATPAGASLEWSQARGLLFSPAPQPRRLLPGPQENSVQSSACGRQHLEPTGTIDMRGPGQADCAVAIGRPLGEVVTLRVLESSLNCSAGDMLLLWGRLTWRKMCRKLLDMTFSSKTNTLVVRQRCGRPGGGVLLRYGSQLAPETFYRECDMQLFGPWGEIVSPSLSPATSNAGGCRLFINVAPHARIAIHALATNMGAGTEGANASYILIRDTHSLRTTAFHGQQVLYWESESSQAEMEFSEGFLKAQASLRGQYWTLQSWVPEMQDPQSWKGKEGT
B5: T1135stop (C-terminal deletion variant of ADAMTS-13, FLAG appended) (protein)
chain: PSHFQQSCLQALEPQAVSSYLSPGAPLKGRPPSPGFQRQRQRQRRAAGGILHLELLVAVGPDVFQAHQEDTERYVLTNLNIGAELLRDPSLGAQFRVHLVKMVILTEPEGAPNITANLTSSLLSVCGWSQTINPEDDTDPGHADLVLYITRFDLELPDGNRQVRGVTQLGGACSPTWSCLITEDTGFDLGVTIAHEIGHSFGLEHDGAPGSGCGPSGHVMASDGAAPRAGLAWSPCSRRQLLSLLSAGRARCVWDPPRPQPGSAGHPPDAQPGLYYSANEQCRVAFGPKAVACTFAREHLDMCQALSCHTDPLDQSSCSRLLVPLLDGTECGVEKWCSKGRCRSLVELTPIAAVHGRWSSWGPRSPCSRSCGGGVVTRRRQCNNPRPAFGGRACVGADLQAEMCNTQACEKTQLEFMSQQCARTDGQPLRSSPGGASFYHWGAAVPHSQGDALCRHMCRAIGESFIMKRGDSFLDGTRCMPSGPREDGTLSLCVSGSCRTFGCDGRMDSQQVWDRCQVCGGDNSTCSPRKGSFTAGRAREYVTFLTVTPNLTSVYIANHRPLFTHLAVRIGGRYVVAGKMSISPNTTYPSLLEDGRVEYRVALTEDRLPRLEEIRIWGPLQEDADIQVYRRYGEEYGNLTRPDITFTYFQPKPRQAWVWAAVRGPCSVSCGAGLRWVNYSCLDQARKELVETVQCQGSQQPPAWPEACVLEPCPPYWAVGDFGPCSASCGGGLRERPVRCVEAQGSLLKTLPPARCRAGAQQPAVALETCNPQPCPARWEVSEPSSCTSAGGAGLALENETCVPGADGLEAPVTEGPGSVDEKLPAPEPCVGMSCPPGWGHLDATSAGEKAPSPWGSIRTGAQAAHVWTPAAGSCSVSCGRGLMELRFLCMDSALRVPVQEELCGLASKPGSRREVCQAVPCPARWQYKLAACSVSCGRGVVRRILYCARAHGEDDGEEILLDTQCQGLPRPEPQEACSLEPCPPRWKVMSLGPCSASCGLGTARRSVACVQLDQGQDVEVDEAACAALVRPEASVPCLIADCTYRWHVGTWMECSVSCGDGIQRRRDTCLGPQAQAPVPADFCQHLPKPVTVRGCWAGPCVGQGTDYKDDDDK
B6: Full 1427stop (FLAG tagged ADAMTS-13 wild type) (protein)
chain: PSHFQQSCLQALEPQAVSSYLSPGAPLKGRPPSPGFQRQRQRQRRAAGGILHLELLVAVGPDVFQAHQEDTERYVLTNLNIGAELLRDPSLGAQFRVHLVKMVILTEPEGAPNITANLTSSLLSVCGWSQTINPEDDTDPGHADLVLYITRFDLELPDGNRQVRGVTQLGGACSPTWSCLITEDTGFDLGVTIAHEIGHSFGLEHDGAPGSGCGPSGHVMASDGAAPRAGLAWSPCSRRQLLSLLSAGRARCVWDPPRPQPGSAGHPPDAQPGLYYSANEQCRVAFGPKAVACTFAREHLDMCQALSCHTDPLDQSSCSRLLVPLLDGTECGVEKWCSKGRCRSLVELTPIAAVHGRWSSWGPRSPCSRSCGGGVVTRRRQCNNPRPAFGGRACVGADLQAEMCNTQACEKTQLEFMSQQCARTDGQPLRSSPGGASFYHWGAAVPHSQGDALCRHMCRAIGESFIMKRGDSFLDGTRCMPSGPREDGTLSLCVSGSCRTFGCDGRMDSQQVWDRCQVCGGDNSTCSPRKGSFTAGRAREYVTFLTVTPNLTSVYIANHRPLFTHLAVRIGGRYVVAGKMSISPNTTYPSLLEDGRVEYRVALTEDRLPRLEEIRIWGPLQEDADIQVYRRYGEEYGNLTRPDITFTYFQPKPRQAWVWAAVRGPCSVSCGAGLRWVNYSCLDQARKELVETVQCQGSQQPPAWPEACVLEPCPPYWAVGDFGPCSASCGGGLRERPVRCVEAQGSLLKTLPPARCRAGAQQPAVALETCNPQPCPARWEVSEPSSCTSAGGAGLALENETCVPGADGLEAPVTEGPGSVDEKLPAPEPCVGMSCPPGWGHLDATSAGEKAPSPWGSIRTGAQAAHVWTPAAGSCSVSCGRGLMELRFLCMDSALRVPVQEELCGLASKPGSRREVCQAVPCPARWQYKLAACSVSCGRGVVRRILYCARAHGEDDGEEILLDTQCQGLPRPEPQEACSLEPCPPRWKVMSLGPCSASCGLGTARRSVACVQLDQGQDVEVDEAACAALVRPEASVPCLIADCTYRWHVGTWMECSVSCGDGIQRRRDTCLGPQAQAPVPADFCQHLPKPVTVRGCWAGPCVGQGTPSLVPHEEAAAPGRTTATPAGASLEWSQARGLLFSPAPQPRRLLPGPQENSVQSSACGRQHLEPTGTIDMRGPGQADCAVAIGRPLGEVVTLRVLESSLNCSAGDMLLLWGRLTWRKMCRKLLDMTFSSKTNTLVVRQRCGRPGGGVLLRYGSQLAPETFYRECDMQLFGPWGEIVSPSLSPATSNAGGCRLFINVAPHARIAIHALATNMGAGTEGANASYILIRDTHSLRTTAFHGQQVLYWESESSQAEMEFSEGFLKAQASLRGQYWTLQSWVPEMQDPQSWKGKEGTDYKDDDDK

Target: von Willebrand factor (vWF), prepared from plasma cryo fraction, P04275

Protein | vWF cleaving activity | vWF cleaving activity (SDS-PAGE)
B1 | secretion into culture supernatant was observed but the enzyme activity was weak or not observed in a molecule consisting of amino acids up to the vicinity of the 449th | 
B2 |  | vWF cleaving activity was clearly recognized from the full-length molecule to W688stop molecule
B3 |  | vWF cleaving activity was clearly recognized from the full-length molecule to W688stop molecule
B4 | It was also confirmed that the vWF cleaving activity exists in the obtained purified fraction | 
B5 |  | vWF cleaving activity was clearly recognized from the full-length molecule to W688stop molecule
B6 |  | vWF cleaving activity was clearly recognized from the full-length molecule to W688stop molecule
